Assay results: patent publication US7067277B1, “Chimeric G proteins and uses thereof” (H. Lundbeck A/S, priority 1999, dated 2006)

T1: r GALR3 (Rattus norvegicus, UniProt O88626)
T1 sequence (O88626 1-370): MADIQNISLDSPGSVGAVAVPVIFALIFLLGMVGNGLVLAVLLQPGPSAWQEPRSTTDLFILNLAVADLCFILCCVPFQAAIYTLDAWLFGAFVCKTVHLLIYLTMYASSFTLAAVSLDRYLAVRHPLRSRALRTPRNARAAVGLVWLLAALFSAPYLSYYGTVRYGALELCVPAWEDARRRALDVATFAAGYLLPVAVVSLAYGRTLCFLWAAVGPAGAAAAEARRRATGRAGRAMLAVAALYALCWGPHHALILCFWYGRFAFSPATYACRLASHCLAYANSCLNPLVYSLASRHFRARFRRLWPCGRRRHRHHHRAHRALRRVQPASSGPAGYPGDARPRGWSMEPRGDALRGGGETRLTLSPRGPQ


How the values were obtained:
Experiment in all cases: Calcium mobilization (FLIPR, Fluo-3) in transfected COS-7 cells
Type in all cases: cell-based
[1] = target: T1, r GALR3; details: COS-7 cells transfected with the rat GALR3 receptor; n=4
Experimental: (§1) COS-7 cells were cultured in 225 cm^2 flasks in Dulbecco's Modified Eagle Medium (DMEM) with supplements (10% bovine calf serum, 4 mM glutamine, 100 units/ml penicillin and 100 μg/ml streptomycin) at 37° C., 5% CO2. Stock plates of COS-7 cells were trypsinized and split 1:6 every 3–4 days.
(§2) GPCR and chimeric G protein cDNAs were transiently transfected into COS-7 cells in 150 cm^2 flasks by the DEAE-dextran method (Cullen, 1987), using a total of 20 μg of DNA/˜7×10^6 cells. For evaluating the function of a single chimeric G protein, the standard cDNA transfection ratio was 1:1 (10 μg GPCR cDNA and 10 μg chimeric G protein cDNA). For evaluating the function of a mixture of chimeric G proteins, the standard cDNA transfection ratio was 8:1:1 (16 μg GPCR cDNA, 2 μg Gαq/z cDNA, 2 μg Gαq/s cDNA).
(§3) Twenty four hours after transient transfection, COS-7 cells were seeded into 96-well black wall microtiter plates coated with poly-D-lysine for assay the following day. Just prior to assay, culture medium was aspirated and cells were dye-loaded with 4 μM Fluo-3/0.01% pluronic acid in assay buffer composed of Hank's Balanced Salt Solution (138 mM NaCl, 5 mM KCl, 1.3 mM CaCl2, 0.5 mM MgCl2, 0.4 mM MgSO4, 0.3 mM KH2PO4, 0.3 mM Na2HPO4, 5.6 mM glucose) plus 20 mM HEPES (pH 7.4), 0.1% BSA and 2.5 mM probenicid (100 μl/well) for 1 hour in 5% CO2 at 37° C. After excess dye was discarded, cells were washed in assay buffer and layered with a final volume equal to 100 μl/well. Basal fluorescence was monitored in a fluorometric imaging plate reader (FLIPR™, Molecular Devices) with an excitation wavelength of 488 nm and an emission range of 500 to 560 nm. Laser excitation energy was adjusted so that basal fluorescence readings were approximately 10,000 relative fluorescent units. Cells were stimulated with agonists diluted in assay buffer (50 μl), and relative fluorescent units were measured at defined intervals (exposure=0.4 sec) over a 3 min period at room temperature. Maximum change in fluorescence was calculated for each well. Concentration-response curves derived from the maximum change in fluorescence were analyzed by nonlinear regression (Hill equation).

[2] = target: h 5HT4 (Homo sapiens, UniProt Q13639); details: h 5HT4 + chimera in COS-7; agonist 5HT, max 100 μM
Sequence of h 5HT4 (Q13639 whole entry): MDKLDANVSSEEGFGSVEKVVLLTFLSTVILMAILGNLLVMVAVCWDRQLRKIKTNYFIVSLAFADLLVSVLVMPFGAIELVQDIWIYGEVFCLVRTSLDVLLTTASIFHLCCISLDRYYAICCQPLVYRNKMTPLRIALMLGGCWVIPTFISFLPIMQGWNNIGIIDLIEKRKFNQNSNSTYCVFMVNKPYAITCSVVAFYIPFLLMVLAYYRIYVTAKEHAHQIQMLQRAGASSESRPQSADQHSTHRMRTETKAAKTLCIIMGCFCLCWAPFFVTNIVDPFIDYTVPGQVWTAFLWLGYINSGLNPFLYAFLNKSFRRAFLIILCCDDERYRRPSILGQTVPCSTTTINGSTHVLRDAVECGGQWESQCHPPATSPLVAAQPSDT
Experimental: as §1, §2, §3

[3] = target: h 5HT6 (Homo sapiens, UniProt P50406); details: h 5HT6 + chimera in COS-7; agonist 5HT, max 100 μM
Sequence of h 5HT6 (P50406 whole entry): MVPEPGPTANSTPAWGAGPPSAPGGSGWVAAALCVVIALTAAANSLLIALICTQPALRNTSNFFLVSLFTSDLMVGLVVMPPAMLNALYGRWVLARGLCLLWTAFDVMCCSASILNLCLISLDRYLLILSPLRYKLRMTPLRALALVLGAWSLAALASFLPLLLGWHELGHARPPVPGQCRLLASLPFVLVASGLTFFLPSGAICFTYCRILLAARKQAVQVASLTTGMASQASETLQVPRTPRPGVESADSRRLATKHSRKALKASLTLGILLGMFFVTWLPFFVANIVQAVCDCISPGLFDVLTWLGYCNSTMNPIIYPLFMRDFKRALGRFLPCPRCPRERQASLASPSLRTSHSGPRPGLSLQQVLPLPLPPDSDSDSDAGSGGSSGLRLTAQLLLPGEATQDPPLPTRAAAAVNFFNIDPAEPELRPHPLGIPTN
Experimental: as §1, §2, §3

[4] = target: h 5HT7 (Homo sapiens, UniProt P34969); details: h 5HT7 + chimera in COS-7; agonist 5HT, max 100 μM
Sequence of h 5HT7 (P34969 whole entry): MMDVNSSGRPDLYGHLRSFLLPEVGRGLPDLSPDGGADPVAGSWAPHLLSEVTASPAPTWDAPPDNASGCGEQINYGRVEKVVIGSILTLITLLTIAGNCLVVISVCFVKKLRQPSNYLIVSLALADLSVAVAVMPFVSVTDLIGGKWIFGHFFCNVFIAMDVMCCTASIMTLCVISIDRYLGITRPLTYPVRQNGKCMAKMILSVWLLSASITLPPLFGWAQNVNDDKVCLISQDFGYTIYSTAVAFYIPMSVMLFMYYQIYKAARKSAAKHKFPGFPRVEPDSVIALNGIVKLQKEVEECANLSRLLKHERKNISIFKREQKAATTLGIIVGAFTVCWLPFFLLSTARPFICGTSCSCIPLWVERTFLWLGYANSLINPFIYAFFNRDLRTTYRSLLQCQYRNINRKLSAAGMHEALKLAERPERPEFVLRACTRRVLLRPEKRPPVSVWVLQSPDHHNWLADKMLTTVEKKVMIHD
Experimental: as §1, §2, §3

[5] = target: h D5 (Homo sapiens, UniProt P21918); details: h D5 + chimera in COS-7; agonist DA, max 100 μM
Sequence of h D5 (P21918 whole entry): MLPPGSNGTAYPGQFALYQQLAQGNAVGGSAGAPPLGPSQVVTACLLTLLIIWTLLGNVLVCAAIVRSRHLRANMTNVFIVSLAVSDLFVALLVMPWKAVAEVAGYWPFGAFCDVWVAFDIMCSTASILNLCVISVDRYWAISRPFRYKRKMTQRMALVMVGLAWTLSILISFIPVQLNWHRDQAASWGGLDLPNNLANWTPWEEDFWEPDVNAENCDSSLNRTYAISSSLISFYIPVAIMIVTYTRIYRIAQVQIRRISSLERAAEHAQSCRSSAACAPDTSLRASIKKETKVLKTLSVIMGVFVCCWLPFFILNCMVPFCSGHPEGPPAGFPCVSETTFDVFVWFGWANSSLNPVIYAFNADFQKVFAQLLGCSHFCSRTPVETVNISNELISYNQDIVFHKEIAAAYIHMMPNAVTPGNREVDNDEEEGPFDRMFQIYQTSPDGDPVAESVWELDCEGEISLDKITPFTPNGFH
Experimental: as §1, §2, §3

[6] = target: h GLP-1 (Homo sapiens, UniProt P43220); details: h GLP-1 + chimera in COS-7; agonist GLP-1, max 10 μM
Sequence of h GLP-1 (P43220 24-463): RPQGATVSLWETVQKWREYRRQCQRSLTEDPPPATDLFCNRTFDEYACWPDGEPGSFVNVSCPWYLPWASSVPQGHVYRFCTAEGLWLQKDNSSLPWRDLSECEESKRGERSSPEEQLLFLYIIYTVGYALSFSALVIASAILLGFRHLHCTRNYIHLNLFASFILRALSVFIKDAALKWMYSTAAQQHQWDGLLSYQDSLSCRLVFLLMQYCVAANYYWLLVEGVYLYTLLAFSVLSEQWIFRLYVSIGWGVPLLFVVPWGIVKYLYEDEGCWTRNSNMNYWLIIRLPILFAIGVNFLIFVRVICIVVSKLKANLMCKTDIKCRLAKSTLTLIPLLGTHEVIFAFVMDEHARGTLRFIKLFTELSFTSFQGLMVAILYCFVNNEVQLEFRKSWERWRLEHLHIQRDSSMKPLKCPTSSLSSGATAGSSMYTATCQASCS
Experimental: as §1, §2, §3

[7] = target: h β2 adr (Homo sapiens, UniProt P07550); details: h β2 adr + chimera in COS-7; agonist NE, max 100 μM
Experimental: as §1, §2, §3

[8] = target: T2, h D1 (Homo sapiens, UniProt P21728)
T2 construct: expressed in transfected cells; host or cells: COS-7
T2 sequence (P21728 whole entry): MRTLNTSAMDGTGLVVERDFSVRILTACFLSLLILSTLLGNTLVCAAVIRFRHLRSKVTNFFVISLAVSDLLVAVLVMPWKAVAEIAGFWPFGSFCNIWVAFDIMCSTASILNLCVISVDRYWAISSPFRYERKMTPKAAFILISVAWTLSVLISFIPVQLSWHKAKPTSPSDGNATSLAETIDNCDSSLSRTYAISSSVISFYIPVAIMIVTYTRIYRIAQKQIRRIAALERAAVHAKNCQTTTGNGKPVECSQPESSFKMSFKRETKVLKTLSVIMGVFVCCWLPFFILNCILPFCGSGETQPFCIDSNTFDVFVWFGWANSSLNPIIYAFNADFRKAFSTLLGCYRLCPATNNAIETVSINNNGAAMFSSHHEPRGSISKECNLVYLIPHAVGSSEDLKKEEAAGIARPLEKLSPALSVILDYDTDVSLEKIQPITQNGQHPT
Experimental: as §1
For evaluating the function of a single chimeric G protein, the standard cDNA transfection ratio was 1:1 (10 μg GPCR cDNA and 10 μg chimeric G protein cDNA). For evaluating the function of a mixture of chimeric G proteins, the standard cDNA transfection ratio was 8:1:1 (16 μg GPCR cDNA, 2 μg Gαq/z cDNA, 2 μg Gαq/s cDNA).
as §3, with “Just prior to assay, culture medium was aspirated and cells were dye-loaded with 4 μM Fluo-3/0.01% pluronic acid in assay buffer composed of Hank's Balanced Salt Solution (138 mM NaCl, 5 mM KCl, 1.3 mM CaCl2, 0.5 mM MgCl2, 0.4 mM MgSO4, 0.3 mM KH2PO4, 0.3 mM Na2HPO4, 5.6 mM glucose) plus 20 mM HEPES (pH 7.4), 0.1% BSA and 2.5 mM probenicid (100 μl/well) for 1 hour in 5% CO2 at 37° C.” left out

[9] = h D1 + chimera in COS-7, agonist DA, max 100 μM

Molecule	maximum signal produced by porcine galanin [1]	MAXIMAL SIGNAL (FLUORESCENCE UNITS) [2]	MAXIMAL SIGNAL (FLUORESCENCE UNITS) [3]	MAXIMAL SIGNAL (FLUORESCENCE UNITS) [4]	MAXIMAL SIGNAL (FLUORESCENCE UNITS) [5]	MAXIMAL SIGNAL (FLUORESCENCE UNITS) [6]	MAXIMAL SIGNAL (FLUORESCENCE UNITS) [7]	MAXIMAL SIGNAL (FLUORESCENCE UNITS) [8, 9]	MAXIMAL SIGNAL (FLUORESCENCE UNITS) ([8]; human D1 receptors in COS-7, 10 μg chimera cDNA and 10 μg receptor cDNA, 100 μM dopamine, Table 9 parallel comparison, mean of two experiments)
C. elegans Gαq/i3(5): C. elegans Gαq with five C-terminal amino acids of Gαi3 (SEQ ID NO: 5) (protein, C. elegans) MACCLSEEAREQKRINQEIEKQLQRDKRNARRELKLLLLGTGESGKSTFIKQMRIIHGQGYSEEDKRAHIRLVYQNVFMAIQSMIRAMDTLDIKFGNESEELQEKAAVVREVDFESVTSFEEPYVSYIKELWEDSGIQECYDRRREYQLTDSAKYYLSDLRRLAVPDYLPTEQDILRVRVPTTGIIEYPFDLEQIIFRMVDVGGQRSERRKWIHCFENVTSIMFLVALSEYDQVLVECDNENRMEESKALFRTIITYPWFTNSSVILFLNKKDLLEEKILYSHLADYFPEYDGPPRDPIAAREFILKMFVDLNPDADKIIYSHFTCATDTENIRFVFAAVKDTILQHNLKECGLY	2564 relative fluorescent units	–	–	–	–	–	–	–	–
hGαq/s9: human Gαq with 9 C-terminal amino acids of Gαs (protein) MTLESIMACCLSEEAKEARRINDEIERQLRRDKRDARRELKLLLLGTGESGKSTFIKQMRIIHGSGYSDEDKRGFTKLVYQNIFTAMQAMIRAMDTLKIPYKYEHNKAHAQLVREVDVEKVSAFENPYVDAIKSLWNDPGIQECYDRRREYQLSDSTKYYLNDLDRVADPSYLPTQQDVLRVRVPTTGIIEYPFDLQSVIFRMVDVGGQRSERRKWIHCFENVTSIMFLVALSEYDQVLVESDNENRMEESKALFRTIITYPWFQNSSVILFLNKKDLLEEKIMYSHLVDYFPEYDGPQRDAQAAREFILKMFVDLNPDSDKIIYSHFTCATDTENIRFVFAAVKDTILQMHLRQYELL	–	2309 fluorescence units	999 fluorescence units	0 fluorescence units	745 fluorescence units	4198 fluorescence units	1439 fluorescence units	5692 fluorescence units	–
hGαq/s5: human Gαq with 5 C-terminal amino acids of Gαs (protein) MTLESIMACCLSEEAKEARRINDEIERQLRRDKRDARRELKLLLLGTGESGKSTFIKQMRIIHGSGYSDEDKRGFTKLVYQNIFTAMQAMIRAMDTLKIPYKYEHNKAHAQLVREVDVEKVSAFENPYVDAIKSLWNDPGIQECYDRRREYQLSDSTKYYLNDLDRVADPSYLPTQQDVLRVRVPTTGIIEYPFDLQSVIFRMVDVGGQRSERRKWIHCFENVTSIMFLVALSEYDQVLVESDNENRMEESKALFRTIITYPWFQNSSVILFLNKKDLLEEKIMYSHLVDYFPEYDGPQRDAQAAREFILKMFVDLNPDSDKIIYSHFTCATDTENIRFVFAAVKDTILQLNLKQYELL	–	1709 fluorescence units	98 fluorescence units	0 fluorescence units	0 fluorescence units	189 fluorescence units	43 fluorescence units	–	–
human Gαq/i3(5): human Gαq with five C-terminal amino acids of Gαi3 (protein) MTLESIMACCLSEEAKEARRINDEIERQLRRDKRDARRELKLLLLGTGESGKSTFIKQMRIIHGSGYSDEDKRGFTKLVYQNIFTAMQAMIRAMDTLKIPYKYEHNKAHAQLVREVDVEKVSAFENPYVDAIKSLWNDPGIQECYDRRREYQLSDSTKYYLNDLDRVADPSYLPTQQDVLRVRVPTTGIIEYPFDLQSVIFRMVDVGGQRSERRKWIHCFENVTSIMFLVALSEYDQVLVESDNENRMEESKALFRTIITYPWFQNSSVILFLNKKDLLEEKIMYSHLVDYFPEYDGPQRDAQAAREFILKMFVDLNPDSDKIIYSHFTCATDTENIRFVFAAVKDTILQLNLKECGLY	2084 relative fluorescent units	–	–	–	–	–	–	–	–
dGαq/z5: D. melanogaster Gαq chimera containing the five C-terminal amino acids of human Gαz (SEQ ID NO: 41) (protein, Drosophila melanogaster) MECCLSEEAKEQKRINQEIEKQLRRDKRDARRELKLLLLGTGESGKSTFIKQMRIIHGSGYSDEDKRGYIKLVFQNIFMAMQSMIKAMDMLKISYGQGEHSELADLVMSIDYETVTTFEDPYLNAIKTLWDDAGIQECYDRRREYQLTDSAKYYLKDLDRVAQPAYLPTEQDILRVRVPTTGIIEYPFDLEEIRFRMVDVGGQRSERRKWIHCFENVTSIIFLVALSEYDQILFESDNENRMEESKALFRTIITYPWFQNSSVILFLNKKDLLEEKIMYSHLVDYFPEYDGPQRDAITAREFILRMFVDLNPDSEKIIYSHFTCATDTENIRFVFAAVKDTILQSNLKYIGLC	–	–	–	–	–	–	–	–	2149 fluorescence units
cGαq/s21: C. elegans Gαq with C-terminal Gαs tail of 21 amino acids (SEQ ID NO: 4) (protein, C. elegans) MACCLSEEAREQKRINQEIEKQLQRDKRNARRELKLLLLGTGESGKSTFIKQMRIIHGQGYSEEDKRAHIRLVYQNVFMAIQSMIRAMDTLDIKFGNESEELQEKAAVVREVDFESVTSFEEPYVSYIKELWEDSGIQECYDRRREYQLTDSAKYYLSDLRRLAVPDYLPTEQDILRVRVPTTGIIEYPFDLEQIIFRMVDVGGQRSERRKWIHCFENVTSIMFLVALSEYDQVLVECDNENRMEESKALFRTIITYPWFTNSSVILFLNKKDLLEEKILYSHLADYFPEYDGPPRDPIAAREFILKMFVDLNPDADKIIYSHFTCATDTENIRRVFNDCRDIIQRMHLRQYELL	–	1731 fluorescence units	1009 fluorescence units	206 fluorescence units	3385 fluorescence units	3120 fluorescence units	3513 fluorescence units	9433 fluorescence units	–
